This experiment has as its target Flag tagged HIV-1 Env with the 7aa Erbin PDZ domain binding sequence fused to its C-terminus (HIV-1). Nature of the experiment: cell-based or functional assay.

Ebola VP40-Erbin PDZ fusion protein: the normalized VLP ELISA (Env display on VLPs) (fold decrease) stood at 2.

The values are drawn from patent US20260200991A1.
